Drawing on patent publication US20160200815A1, this text covers Absorbance and IL-2 secretion by SEB-activated PBMCs (% of the activity of anti-PD-L1) for one substance.

Assay [1] deals with hTIM3-Fc murine CC′ loop (human, CC′ loop replaced by mouse TIM-3). The assay is described as follows: ELISA, construct coated on plate. On the technique in general: In an ELISA, binding on a coated surface is turned into a signal by an enzyme label.
For assay [2], the target named is hTIM3-Fc murine FG loop (human, FG loop replaced by mouse TIM-3). The assay is described as follows: ELISA, construct coated on plate.
Assay [3] addresses hTIM3-Fc murine DE loop (human, DE loop replaced by mouse TIM-3). The assay is described as follows: ELISA, construct coated on plate.
In assay [4] the target is hTIM3-Fc murine BC loop (human, BC loop replaced by mouse TIM-3). The assay is described as follows: ELISA, construct coated on plate.
For assay [5], the target named is hTIM3-Fc murine C′C″ loop (human, C′C″ loop replaced by mouse TIM-3). Briefly: ELISA, construct coated on plate.
For a further assay, the target named is hTIM3-Fc WT (human). Briefly: ELISA, construct coated on plate.
Assay [6] has as its target human TIM-3 on cells (human) (UniProt Q8TDQ0). The assay is described as follows: cell-based or functional assay.

For the substance “anti-TIM-3 mAb F38-2E2 (BioLegend, 345010) (antibody)”, the Absorbance at 450 nm stood at 0.094 A450 in assay [1]; 1.48 A450 in assay [2]; 0.978 A450 in assay [3]; 1.23 A450 in assay [4]; 1.48 A450 in assay [5]; 1.34 A450 with hTIM3-Fc WT (human). In assay [6], this substance yielded an IL-2 secretion by SEB-activated PBMCs (% of the activity of anti-PD-L1) of 50.
